The record followed here is US6051224, “Compositions and methods for targeting cells and modulating pulmonary surfactant secretion” (Thomas Jefferson University, dated 2000).

The experiment concerns the target purified recombinant human surfactant protein A (human, UniProt Q8IWL2, 125I radioiodination using chloramine T). Put plainly: ligand blot of lysogen proteins (SDS-PAGE, PVDF, 125I-SP-A).

B1: recombinant porcine SP-A recognition protein (SPAR) encoded by the 1.8-kb porcine lung cDNA, expressed from lambda gt11 in E. coli Y1089 (receptor)
chain: MDMCYGMMGSLFRSGSRQTLFASQVMRYADLYAASFINLLYYPFSYLFRAAHVLMPHESTVEHTHVDINEMESPLATRNRTSVDFKDTDYKRHQLTRSISEIKPPNLFPLAPQEITHCHDEDDDEEEEEEEEECGGKPKLSALIKQVLAGLTGAKAVSLWVLVGGGGLHQRYILESFLKTLKYSNHREILVLVFCICTLCSWFRIVRESVSEERKGQAGLNCMQLAPLWFVTLFHHQYIIVYPETRRVVEGPRVKQRQWEEVIQKCYGTNWALTTKTHLFQCIT
Take B1: the binding result is given as “binds”.
